The data set has as its system Escherichia coli TOP10. Put plainly: shrunken log2 fold change of peptide-encoding DNA abundance (4.5 h post-induction vs induction); higher = less antimicrobial activity (less host growth inhibition). As to conditions: time post-induction: 4.5 h; library: site-saturation at positions 5, 18, 19, 20.
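Note: peptides expressed intracellularly from a pBAD plasmid library in pooled LB shake-flask culture, induced with 0.3% L-arabinose, DNA abundance read by NGS, three biological replicates, DESeq2 with apeglm shrinkage.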

As for RRIRARPPRLPRPRPRPNSSPRP, the “shrunken log2 fold change” value came to 0.184.

As for RRIRIRPPRLPRPRPRPGITPRP, the “shrunken log2 fold change” value was -0.182. Next, RRIRPRPPRLPRPRPRPDPDPRP: -0.0832; RRIRLRPPRLPRPRPRPMWLPRP: -0.0867.

Regarding RRIRSRPPRLPRPRPRPETDPRP, the “shrunken log2 fold change” value is 0.392. With RRIRFRPPRLPRPRPRPNLCPRP, the “shrunken log2 fold change” value worked out at 0.00999. As for RRIRQRPPRLPRPRPRPYKDPRP, the “shrunken log2 fold change” value was -0.0988. Regarding RRIRIRPPRLPRPRPRPTIMPRP, the “shrunken log2 fold change” value was -0.745. For RRIRERPPRLPRPRPRPRMAPRP, the “shrunken log2 fold change” value worked out at 0.2. For RRIRYRPPRLPRPRPRPYFHPRP, the “shrunken log2 fold change” value is -1.4. Take RRIRVRPPRLPRPRPRPPIGPRP: the “shrunken log2 fold change” value worked out at 0.174.

In the case of RRIRFRPPRLPRPRPRPSERPRP, the “shrunken log2 fold change” value is -0.0251.

With RRIRPRPPRLPRPRPRPKWTPRP, the “shrunken log2 fold change” value was -0.0336.

On to RRIRHRPPRLPRPRPRPFMQPRP, for which the “shrunken log2 fold change” value is -0.348. The figure for RRIRYRPPRLPRPRPRPSHAPRP is -0.242. As to RRIRVRPPRLPRPRPRPFPWPRP, the “shrunken log2 fold change” value is -0.0892.

Regarding RRIRWRPPRLPRPRPRPDFWPRP, the “shrunken log2 fold change” value was 0.582. With RRIRERPPRLPRPRPRPYKNPRP, the “shrunken log2 fold change” value is -0.756.

On to RRIRNRPPRLPRPRPRPCAMPRP, for which the “shrunken log2 fold change” value is -0.132. As for RRIRTRPPRLPRPRPRPKTAPRP, the “shrunken log2 fold change” value is -0.0452. With RRIRRRPPRLPRPRPRPQSVPRP, the “shrunken log2 fold change” value was -0.0146. Next, RRIRWRPPRLPRPRPRPQTSPRP: -0.0118; RRIRARPPRLPRPRPRPDVRPRP: 0.0106.

On to RRIRFRPPRLPRPRPRPYGEPRP, for which the “shrunken log2 fold change” value was -0.0721. Turning to RRIRCRPPRLPRPRPRPHERPRP, the “shrunken log2 fold change” value is -0.0193. Next, RRIRVRPPRLPRPRPRPWRLPRP: 0.426. Regarding RRIRKRPPRLPRPRPRPFSMPRP, the “shrunken log2 fold change” value was -0.489.

As for RRIRCRPPRLPRPRPRPDHTPRP, the “shrunken log2 fold change” value was -0.699. Next, RRIRNRPPRLPRPRPRPYWSPRP: -0.195. Next, RRIRDRPPRLPRPRPRPKRDPRP: 0.145; RRIRMRPPRLPRPRPRPSGKPRP: 0.222.

In the case of RRIRYRPPRLPRPRPRPFIHPRP, the “shrunken log2 fold change” value was -1.54. Regarding RRIRWRPPRLPRPRPRPFKYPRP, the “shrunken log2 fold change” value is -0.00867.

In the case of RRIRLRPPRLPRPRPRPQCLPRP, the “shrunken log2 fold change” value is -0.455. Next, RRIRYRPPRLPRPRPRPEQSPRP: 0.0157; RRIRTRPPRLPRPRPRPCPHPRP: -0.0429; RRIRMRPPRLPRPRPRPYHKPRP: -0.0503. Next, RRIRVRPPRLPRPRPRPNELPRP: -0.00739; RRIRLRPPRLPRPRPRPLDFPRP: -0.162; RRIRKRPPRLPRPRPRPTPAPRP: 1.41. Regarding RRIRLRPPRLPRPRPRPPEFPRP, the “shrunken log2 fold change” value was 0.0526. For the sequence RRIRGRPPRLPRPRPRPLSCPRP, the “shrunken log2 fold change” value amounted to 0.276. As for RRIRYRPPRLPRPRPRPASNPRP, the “shrunken log2 fold change” value was -0.0548. Next, RRIRIRPPRLPRPRPRPPCNPRP: -0.449. On to RRIRLRPPRLPRPRPRPWSSPRP, for which the “shrunken log2 fold change” value was -0.469. Next, RRIRQRPPRLPRPRPRPQLAPRP: 0.0428. RRIRGRPPRLPRPRPRPENVPRP: the “shrunken log2 fold change” value was determined as 0.328. Take RRIRYRPPRLPRPRPRPSHTPRP: the “shrunken log2 fold change” value was -1.39. For the sequence RRIRMRPPRLPRPRPRPNWLPRP, the “shrunken log2 fold change” value was 0.286. The figure for RRIRQRPPRLPRPRPRPKDMPRP is 0.0374; for RRIRPRPPRLPRPRPRPNNSPRP it is -0.488; for RRIRVRPPRLPRPRPRPGLKPRP it is 0.049. For the sequence RRIRIRPPRLPRPRPRPLWKPRP, the “shrunken log2 fold change” value amounted to 0.145. The figure for RRIRKRPPRLPRPRPRPLYEPRP is 0.0468. The figure for RRIRYRPPRLPRPRPRPWLNPRP is -0.367; for RRIRMRPPRLPRPRPRPVPPPRP it is 0.901. For RRIRARPPRLPRPRPRPEKQPRP, the “shrunken log2 fold change” value is -0.148. The figure for RRIRWRPPRLPRPRPRPIMWPRP is 0.181; for RRIRWRPPRLPRPRPRPMTSPRP it is 0.0704.

RRIRDRPPRLPRPRPRPEWTPRP: the “shrunken log2 fold change” value turned out to be 0.147. The figure for RRIRARPPRLPRPRPRPMYHPRP is -0.215. Take RRIRQRPPRLPRPRPRPTQCPRP: the “shrunken log2 fold change” value is -0.343. RRIRKRPPRLPRPRPRPFFWPRP: the “shrunken log2 fold change” value came out at 1.09.

For the sequence RRIRMRPPRLPRPRPRPRVIPRP, the “shrunken log2 fold change” value worked out at 0.477. For RRIRHRPPRLPRPRPRPQRNPRP, the “shrunken log2 fold change” value was -0.223. Take RRIRPRPPRLPRPRPRPKIGPRP: the “shrunken log2 fold change” value turned out to be 0.0118. Next, RRIRSRPPRLPRPRPRPTHCPRP: 0.36; RRIRSRPPRLPRPRPRPRVNPRP: -0.189. Turning to RRIRTRPPRLPRPRPRPKWPPRP, the “shrunken log2 fold change” value is 1.51. Consider RRIRVRPPRLPRPRPRPHCQPRP, for which the “shrunken log2 fold change” value is -0.401. For RRIRDRPPRLPRPRPRPFRCPRP, the “shrunken log2 fold change” value was -0.0101. Next, RRIRDRPPRLPRPRPRPMPRPRP: 0.26. As for RRIRGRPPRLPRPRPRPDDKPRP, the “shrunken log2 fold change” value came out at 0.22.

On to RRIRIRPPRLPRPRPRPDTWPRP, for which the “shrunken log2 fold change” value was -0.239. For the sequence RRIRMRPPRLPRPRPRPMDFPRP, the “shrunken log2 fold change” value is -0.00448. With RRIRERPPRLPRPRPRPRPAPRP, the “shrunken log2 fold change” value is 0.434. For the sequence RRIRARPPRLPRPRPRPTKMPRP, the “shrunken log2 fold change” value worked out at 0.319. In the case of RRIRPRPPRLPRPRPRPQTKPRP, the “shrunken log2 fold change” value was -0.0309. For the sequence RRIRMRPPRLPRPRPRPNLFPRP, the “shrunken log2 fold change” value amounted to 0.124. Turning to RRIRGRPPRLPRPRPRPLLAPRP, the “shrunken log2 fold change” value turned out to be 2.21. Take RRIRWRPPRLPRPRPRPNKEPRP: the “shrunken log2 fold change” value was -0.0697. For the sequence RRIRMRPPRLPRPRPRPPGSPRP, the “shrunken log2 fold change” value came out at 0.904. Take RRIRDRPPRLPRPRPRPIVVPRP: the “shrunken log2 fold change” value is 0.218. For RRIRLRPPRLPRPRPRPSCLPRP, the “shrunken log2 fold change” value was -0.392. As for RRIRQRPPRLPRPRPRPNDSPRP, the “shrunken log2 fold change” value was -0.449. Next, RRIRQRPPRLPRPRPRPPVGPRP: 0.119.

On to RRIRNRPPRLPRPRPRPQSWPRP, for which the “shrunken log2 fold change” value is -0.0543. The figure for RRIRTRPPRLPRPRPRPDSGPRP is -0.0764; for RRIRWRPPRLPRPRPRPWLSPRP it is -0.0459. In the case of RRIRARPPRLPRPRPRPNEKPRP, the “shrunken log2 fold change” value was -0.0878. Turning to RRIRHRPPRLPRPRPRPATWPRP, the “shrunken log2 fold change” value was 0.222. RRIRWRPPRLPRPRPRPHFFPRP: the “shrunken log2 fold change” value was -0.0221. Regarding RRIRERPPRLPRPRPRPAQIPRP, the “shrunken log2 fold change” value is -0.0282. As to RRIRRRPPRLPRPRPRPWIRPRP, the “shrunken log2 fold change” value is -0.298. Regarding RRIRNRPPRLPRPRPRPYSLPRP, the “shrunken log2 fold change” value was -0.965. Take RRIRDRPPRLPRPRPRPGIDPRP: the “shrunken log2 fold change” value is -0.245.

In the case of RRIRQRPPRLPRPRPRPDRIPRP, the “shrunken log2 fold change” value is -0.185. For RRIRHRPPRLPRPRPRPSCDPRP, the “shrunken log2 fold change” value was -0.336. For RRIRGRPPRLPRPRPRPNFDPRP, the “shrunken log2 fold change” value worked out at 0.491. In the case of RRIRIRPPRLPRPRPRPNNSPRP, the “shrunken log2 fold change” value was -0.655. The figure for RRIRVRPPRLPRPRPRPMSNPRP is 0.0709; for RRIRPRPPRLPRPRPRPWPIPRP it is 0.054; for RRIRMRPPRLPRPRPRPLRFPRP it is 0.74. For the sequence RRIRMRPPRLPRPRPRPLFSPRP, the “shrunken log2 fold change” value was found to be 0.0255.

On to RRIRWRPPRLPRPRPRPWFEPRP, for which the “shrunken log2 fold change” value was -0.0354. Next, RRIRARPPRLPRPRPRPRNMPRP: 0.263; RRIRHRPPRLPRPRPRPLKWPRP: -0.0708. Turning to RRIRRRPPRLPRPRPRPNEFPRP, the “shrunken log2 fold change” value was -0.0247. As for RRIRTRPPRLPRPRPRPALMPRP, the “shrunken log2 fold change” value was 0.165.

In the case of RRIRLRPPRLPRPRPRPVCEPRP, the “shrunken log2 fold change” value was 0.39. Next, RRIRKRPPRLPRPRPRPHSCPRP: 0.0828; RRIRDRPPRLPRPRPRPSPDPRP: 0.312. The figure for RRIRYRPPRLPRPRPRPCYTPRP is -0.5; for RRIRRRPPRLPRPRPRPTHEPRP it is 0.338.

Regarding RRIRGRPPRLPRPRPRPFSSPRP, the “shrunken log2 fold change” value was 0.193. For the sequence RRIRTRPPRLPRPRPRPFTFPRP, the “shrunken log2 fold change” value is -0.187. With RRIRFRPPRLPRPRPRPCHPPRP, the “shrunken log2 fold change” value was found to be 1.35. Take RRIRPRPPRLPRPRPRPARSPRP: the “shrunken log2 fold change” value stood at 0.315. For RRIRARPPRLPRPRPRPPANPRP, the “shrunken log2 fold change” value turned out to be 3.4. In the case of RRIRTRPPRLPRPRPRPAPWPRP, the “shrunken log2 fold change” value came out at 0.254. In the case of RRIRMRPPRLPRPRPRPILVPRP, the “shrunken log2 fold change” value came out at 0.133. For the sequence RRIRHRPPRLPRPRPRPLRCPRP, the “shrunken log2 fold change” value was determined as 0.0647. Take RRIRVRPPRLPRPRPRPMQVPRP: the “shrunken log2 fold change” value was 0.121.

In the case of RRIRMRPPRLPRPRPRPGPAPRP, the “shrunken log2 fold change” value worked out at 1.71.

Take RRIRDRPPRLPRPRPRPYRLPRP: the “shrunken log2 fold change” value was -0.0389.

These data come from the supplement of paper PMC9112550, “Optimization of the antimicrobial peptide Bac7 by deep mutational scanning” (BMC Biology, 2022).
